{
  "source": "patent US12359237",
  "key": {"[1]": {"test_system": "T1, 4SCSC7_4AAAA7 precursor peptide", "T1 sequence": "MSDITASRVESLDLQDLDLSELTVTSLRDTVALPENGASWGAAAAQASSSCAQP"}, "[2]": {"test_system": "T2, S11A mutant precursor peptide of LazA*", "T2 sequence": "T1 sequence with A42S, A43C, A44S, A45C, S49A"}, "[3]": {"test_system": "T3, S10A mutant precursor peptide of LazA*", "T3 sequence": "T1 sequence with A42S, A43C, A44S, A45C, S48A"}, "[4]": {"test_system": "T4, S12A mutant precursor peptide of LazA*", "T4 sequence": "T1 sequence with A42S, A43C, A44S, A45C, S50A"}, "[5]": {"test_system": "T5, C13A mutant precursor peptide of LazA*", "T5 sequence": "T1 sequence with A42S, A43C, A44S, A45C, C51A"}},
  "note": "Numbering of substitutions follows the chain as printed.",
  "data": [
    {"substance": "LazC (macrocyclase of lactazole biosynthesis, His-Tag-bound recombinant protein)", "values": [
      {"measurement": "leader peptide elimination (LC-MS chromatogram of the leader peptide cleaved off through LazC reaction)", "setting": "[1]", "result": "Leader peptide elimination was also seen in the 4SCSC7_4AAAA7 precursor peptide at a level equivalent to LazA*"},
      {"measurement": "leader peptide cleaved off through LazC reaction (LC-MS chromatogram)", "setting": "[2]", "result": "such a leader peptide was hardly seen in S11A and S12A"},
      {"measurement": "leader peptide cleaved off through LazC reaction (LC-MS chromatogram)", "setting": "[3]", "result": "Ser (10) and Cys (13) are also relatively important"},
      {"measurement": "leader peptide cleaved off through LazC reaction (LC-MS chromatogram)", "setting": "[4]", "result": "such a leader peptide was hardly seen in S11A and S12A"},
      {"measurement": "leader peptide cleaved off through LazC reaction (LC-MS chromatogram)", "setting": "[5]", "result": "A leader peptide cleaved off was slightly seen in S11A and C13A"}
    ]}
  ]
}
